Test results reported in paper PMC5552345 (PLoS Pathogens, 2017).

Tests used:
[1] = target: T1, (NANP)6 peptide (Plasmodium falciparum CSP repeat, …); test: ITC; 25°C; titration of 2A10 FAB or complete 2A10 with antigen; independent binding sites model; single titration each; conditions: both partners purified
T1 construct: printed as (NANP)6, written out here; a short segment of the antigenic NANP-repeat region of P. falciparum CSP; also called synthetic peptide antigen (NANP)6; source: synthetic peptide
T1 chain: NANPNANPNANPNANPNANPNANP

[2] = target: T2, (NANP)9 peptide (Plasmodium falciparum CSP repeat, …); test: ELISA; recombinant 2A10, germline precursor, hybrids and their point mutants tested on the (NANP)9 peptide; details in S1 Methods
T2 construct: printed as (NANP)9, written out here; NANP repeat of P. falciparum CSP
T2 chain: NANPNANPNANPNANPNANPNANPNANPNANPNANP

Binder | binding result [2] | further results
2A10 antigen-binding fragment (FAB) (Fab, V domains shown, heavy chain part of the 2A10 FAB; as the heavy chain of m1; light chain of the 2A10 FAB; as the light chain of m1; also called 2A10 FAB; 2A10 FAB fragment; source: purified) VH: QIQLVQSGPELKKPGETVKISCKASGYTFTNYGINWVKQAPGKGLKWMGWINTITEEPTFAEEFTGRFAFSLETSASTAYLQINNLKNEDTATYFCARGSEFGRLVYWGQGASVTVSS VL: DIQMTQTTSSLSASLGDRVTISCSASQGISNYLNWYQQKPDGTVKLLIFYTSTLYSGVPSRFSGSGSGTDYSLTISNLEPEDIATYYCQQYSRFPYVFGGGTKLEIK | – | Ka [1]: 2.37e+06 M⁻¹; Kd [1]: 420 nM; dH [1]: -113 kJ/mol complex; stoichiometry N [1]: 2.16 FAB per Ag
hybrid antibody: 2A10 light chain (mLC) paired with germline heavy chain (gHC) (antibody, V domains shown, as the heavy chain of m17 (gHC); as the light chain of m7; also called mLC + gHC; source: HEK293T cells, expressed) VH: QIQLVQSGPELKKPGETVKISCKASGYTFTNYGMNWVKQAPGKGLKWMGWINTNTGEPTYAEEFKGRFAFSLETSASTAYLQINNLKNEDTATYFCARGSEFGRLDYWGQGASVTVSS VL: DIQMTQTTSSLSASLGDRVTISCSASQGISNYLNWYQQKPDGTVKLLIFYTSTLYSGVPSRFSGSGSGTDYSLTISNLEPEDIATYYCQQYSRFPYVFGGGTKLEIK | binds | –
hybrid antibody mLC + gHC with heavy chain N59I (antibody, V domains shown, as the heavy chain of m17 (gHC); as the light chain of m7; source: HEK293T cells, expressed) VH: QIQLVQSGPELKKPGETVKISCKASGYTFTNYGMNWVKQAPGKGLKWMGWINTITGEPTYAEEFKGRFAFSLETSASTAYLQINNLKNEDTATYFCARGSEFGRLDYWGQGASVTVSS VL: DIQMTQTTSSLSASLGDRVTISCSASQGISNYLNWYQQKPDGTVKLLIFYTSTLYSGVPSRFSGSGSGTDYSLTISNLEPEDIATYYCQQYSRFPYVFGGGTKLEIK | binds | –
recombinant antibody corresponding to the 2A10 mAb (antibody, V domains shown, 2A10 heavy chain (mHC), as the heavy chain of m1; FAB part in the deposited structures; 2A10 light chain (mLC), as the light chain of m1; in the deposited structures; also called mHC + mLC; source: HEK293T cells, expressed) VH: QIQLVQSGPELKKPGETVKISCKASGYTFTNYGINWVKQAPGKGLKWMGWINTITEEPTFAEEFTGRFAFSLETSASTAYLQINNLKNEDTATYFCARGSEFGRLVYWGQGASVTVSS VL: DIQMTQTTSSLSASLGDRVTISCSASQGISNYLNWYQQKPDGTVKLLIFYTSTLYSGVPSRFSGSGSGTDYSLTISNLEPEDIATYYCQQYSRFPYVFGGGTKLEIK | binds | –
2A10 gAb with light chain T117V (antibody, V domains shown, as the heavy chain of m17 (gHC); as the light chain of m17 (gLC); source: HEK293T cells, expressed) VH: QIQLVQSGPELKKPGETVKISCKASGYTFTNYGMNWVKQAPGKGLKWMGWINTNTGEPTYAEEFKGRFAFSLETSASTAYLQINNLKNEDTATYFCARGSEFGRLDYWGQGASVTVSS VL: DIQMTQTTSSLSASLGDRVTISCSASQGISNYLNWYQQKPDGTVKLLIYYTSSLHSGVPSRFSGSGSGTDYSLTISNLEPEDIATYYCQQYSKLPYVFGGGTKLEIK | binds | –
2A10 gAb with light chain L114F (antibody, V domains shown, as the heavy chain of m17 (gHC); as the light chain of m17 (gLC); source: HEK293T cells, expressed) VH: QIQLVQSGPELKKPGETVKISCKASGYTFTNYGMNWVKQAPGKGLKWMGWINTNTGEPTYAEEFKGRFAFSLETSASTAYLQINNLKNEDTATYFCARGSEFGRLDYWGQGASVTVSS VL: DIQMTQTTSSLSASLGDRVTISCSASQGISNYLNWYQQKPDGTVKLLIYYTSSLHSGVPSRFSGSGSGTDYSLTISNLEPEDIATYYCQQYSKFPYTFGGGTKLEIK | binds | –
2A10 gAb with light chain L114F and T117V (antibody, V domains shown, as the heavy chain of m17 (gHC); as the light chain of m17 (gLC); also called L114F and T117V introduced simultaneously; source: HEK293T cells, expressed) VH: QIQLVQSGPELKKPGETVKISCKASGYTFTNYGMNWVKQAPGKGLKWMGWINTNTGEPTYAEEFKGRFAFSLETSASTAYLQINNLKNEDTATYFCARGSEFGRLDYWGQGASVTVSS VL: DIQMTQTTSSLSASLGDRVTISCSASQGISNYLNWYQQKPDGTVKLLIYYTSSLHSGVPSRFSGSGSGTDYSLTISNLEPEDIATYYCQQYSKFPYVFGGGTKLEIK | binds | –
predicted germline precursor to the 2A10 antibody (2A10 gAb) (antibody, V domains shown, predicted germline heavy chain (gHC) of 2A10 by V-quest; the 2A10 heavy chain carries 6 mutations against it; predicted germline light chain (gLC) of 2A10 by V-quest; the 2A10 light chain carries 7 mutations against it; also called gHC + gLC; source: HEK293T cells, expressed) VH: QIQLVQSGPELKKPGETVKISCKASGYTFTNYGMNWVKQAPGKGLKWMGWINTNTGEPTYAEEFKGRFAFSLETSASTAYLQINNLKNEDTATYFCARGSEFGRLDYWGQGASVTVSS VL: DIQMTQTTSSLSASLGDRVTISCSASQGISNYLNWYQQKPDGTVKLLIYYTSSLHSGVPSRFSGSGSGTDYSLTISNLEPEDIATYYCQQYSKLPYTFGGGTKLEIK | binds | –
hybrid antibody mLC + gHC with heavy chain M39I (antibody, V domains shown, as the heavy chain of m17 (gHC); as the light chain of m7; source: HEK293T cells, expressed) VH: QIQLVQSGPELKKPGETVKISCKASGYTFTNYGINWVKQAPGKGLKWMGWINTNTGEPTYAEEFKGRFAFSLETSASTAYLQINNLKNEDTATYFCARGSEFGRLDYWGQGASVTVSS VL: DIQMTQTTSSLSASLGDRVTISCSASQGISNYLNWYQQKPDGTVKLLIFYTSTLYSGVPSRFSGSGSGTDYSLTISNLEPEDIATYYCQQYSRFPYVFGGGTKLEIK | binds | –
2A10 gAb with light chain H68Y (antibody, V domains shown, as the heavy chain of m17 (gHC); as the light chain of m17 (gLC); source: HEK293T cells, expressed) VH: QIQLVQSGPELKKPGETVKISCKASGYTFTNYGMNWVKQAPGKGLKWMGWINTNTGEPTYAEEFKGRFAFSLETSASTAYLQINNLKNEDTATYFCARGSEFGRLDYWGQGASVTVSS VL: DIQMTQTTSSLSASLGDRVTISCSASQGISNYLNWYQQKPDGTVKLLIYYTSSLYSGVPSRFSGSGSGTDYSLTISNLEPEDIATYYCQQYSKLPYTFGGGTKLEIK | binds | –
hybrid antibody mLC + gHC with heavy chain T67F (antibody, V domains shown, as the heavy chain of m17 (gHC); as the light chain of m7; source: HEK293T cells, expressed) VH: QIQLVQSGPELKKPGETVKISCKASGYTFTNYGMNWVKQAPGKGLKWMGWINTNTGEPTFAEEFKGRFAFSLETSASTAYLQINNLKNEDTATYFCARGSEFGRLDYWGQGASVTVSS VL: DIQMTQTTSSLSASLGDRVTISCSASQGISNYLNWYQQKPDGTVKLLIFYTSTLYSGVPSRFSGSGSGTDYSLTISNLEPEDIATYYCQQYSRFPYVFGGGTKLEIK | binds | –
